Measured values as given in patent US20180194839A1 (Novartis, published 2018).
Positions count from the first letter of the chain named. In names and notes the source's numbering stands.

T1: human IL-17A (construct not stated) (human, UniProt Q16552 24-155, limits assumed)
T1 construct: also called huIL-17A; human IL-17A biotin
T1 sequence: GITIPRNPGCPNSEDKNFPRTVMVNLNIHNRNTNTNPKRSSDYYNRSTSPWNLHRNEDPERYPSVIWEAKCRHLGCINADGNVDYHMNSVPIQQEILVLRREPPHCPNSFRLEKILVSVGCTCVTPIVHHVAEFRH

T2: recombinant human IL-17A (SEQ ID NO: 76) (human, UniProt Q16552 24-155, limits assumed)
T2 sequence: T1 sequence

T3: recombinant mouse IL-17A (SEQ ID NO: 83) (mouse, UniProt Q62386 26-158)
T3 sequence: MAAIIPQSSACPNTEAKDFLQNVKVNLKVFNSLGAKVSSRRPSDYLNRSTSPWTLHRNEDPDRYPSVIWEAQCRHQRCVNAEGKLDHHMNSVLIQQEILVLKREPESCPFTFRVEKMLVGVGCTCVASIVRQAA

B1: MB454 (Fab, V domains shown)
VH: EVQLVESGGDLVQPGGSLRLSCAASGFTFSSYWMSWVRQAPGKGLEWVANIKQDGSEKYYVDSVKGRFTISRDNAKNSLYLQMNSLRAEDTAVYYCARDRGSLYYWGQGTLVTVSS
VL: AIQLTQSPSSLSASVGDRVTITCRPSQGILWALAWYQQKPGKAPKLLIYDASSLENGVPSRFSGSGSGTDFTLTISSLQPEDFATYYCQQFNSYPLTFGGGTKVEIK
notes: 32 stays A); heavy chain C-terminal Flag tag
B2: MB434 (Fab, V domains shown)
VH: B1 VH
VL: B1 VL with L30W, A32Y
notes: heavy chain C-terminal Flag tag
B3: MB448 (Fab, V domains shown)
VH: B1 VH
VL: B1 VL with L30V, A32M
notes: as for B2
B4: MB461 (Fab, V domains shown)
VH: B1 VH
VL: B1 VL with L30Y, A32T
notes: as for B2
B5: MB447 (Fab, V domains shown)
VH: B1 VH
VL: B1 VL with L30F, A32W
notes: as for B2
B6: MB458 (Fab, V domains shown)
VH: B1 VH
VL: B1 VL with L30W, W31Y, A32Q
notes: as for B2
B7: MB444 (Fab, V domains shown)
VH: B1 VH
VL: B1 VL with A32E
notes: as for B2
B8: MB432 (Fab, V domains shown)
VH: B1 VH
VL: B1 VL with W31F
notes: as for B1
B9: MB464 (Fab, V domains shown)
VH: B1 VH
VL: B1 VL with L30I, W31Y, A32Q
notes: 30 stays I); heavy chain C-terminal Flag tag
B10: MB468 (Fab, V domains shown)
VH: B1 VH
VL: B1 VL with L30Y, A32E
notes: heavy chain C-terminal Flag tag; with N56Q formatted to IgG as XAB3
B11: MB433 (Fab, V domains shown)
VH: B1 VH
VL: B1 VL with L30Y, A32G
notes: as for B2
B12: MB483 (Fab, V domains shown)
VH: B1 VH
VL: B1 VL with L30F, A32T
notes: as for B2
B13: MB440 (Fab, V domains shown)
VH: B1 VH
VL: B1 VL with A32Q
notes: as for B2
B14: MB457 (Fab, V domains shown)
VH: B1 VH
VL: B1 VL with L30I, A32S
notes: as for B9
B15: MB453 (Fab, V domains shown)
VH: B1 VH
VL: B1 VL with L30V, W31F, A32W
notes: as for B2
B16: MB435 (Fab, V domains shown)
VH: B1 VH
VL: B1 VL with L30N, A32E
notes: as for B2
B17: MB456 (Fab, V domains shown)
VH: B1 VH
VL: B1 VL with A32H
notes: as for B2
B18: MB450 (Fab, V domains shown)
VH: B1 VH
VL: B1 VL with L30M, A32W
notes: as for B2
B19: MB486 (Fab, V domains shown)
VH: B1 VH
VL: B1 VL with L30W, A32M
notes: as for B2
B20: MB463 (Fab, V domains shown)
VH: B1 VH
VL: B1 VL with L30Y, W31F, A32E
notes: as for B2
B21: MB491 (Fab, V domains shown)
VH: B1 VH
VL: B1 VL with L30F, W31F, A32W
notes: as for B2
B22: MB438 (Fab, V domains shown)
VH: B1 VH
VL: B1 VL with L30P, W31Y
notes: as for B1
B23: XAB5 (antibody, human IgG1, kappa, V domains shown)
VH: B1 VH
VL: AIQLTQSPSSLSASVGDRVTITCRPSQGINWELAWYQQKPGKAPKLLIYDASSLENGVPSRFSGSGSGTDFTLTISSLQPEDFATYYCQQFNSYPLTFGGGTKVEIKR

Each binder was assayed against T1, human IL-17A (construct not stated) (assay: ELISA on coated huIL-17A, crude Fab extract).

| Binder | Classic ELISA (normalized to XAB1 Fab) |
| --- | --- |
| B1 | 2.9 ratio to XAB1 Fab |
| B2 | 2.4 ratio to XAB1 Fab |
| B3 | 2.9 ratio to XAB1 Fab |
| B4 | 2.9 ratio to XAB1 Fab |
| B5 | 3 ratio to XAB1 Fab |
| B6 | 2.7 ratio to XAB1 Fab |
| B7 | 3.2 ratio to XAB1 Fab |
| B8 | 2.3 ratio to XAB1 Fab |
| B9 | 2.7 ratio to XAB1 Fab |
| B10 | 2.8 ratio to XAB1 Fab |
| B11 | 2.3 ratio to XAB1 Fab |
| B12 | 3.1 ratio to XAB1 Fab |
| B13 | 2.8 ratio to XAB1 Fab |
| B14 | 2.7 ratio to XAB1 Fab |
| B15 | 2.7 ratio to XAB1 Fab |
| B16 | 2.7 ratio to XAB1 Fab |
| B17 | 2.4 ratio to XAB1 Fab |
| B18 | 2.9 ratio to XAB1 Fab |
| B19 | 1.9 ratio to XAB1 Fab |
| B20 | 2.7 ratio to XAB1 Fab |
| B21 | 2.1 ratio to XAB1 Fab |
| B22 | 2.7 ratio to XAB1 Fab |

What follows are binders tested against T2, recombinant human IL-17A (SEQ ID NO: 76) (assay: cell-based or functional assay).

| Binder | IC50, huGROα secretion by BJ cells; stimulus rhuIL-17A (0.5 nM) [nM] |
| --- | --- |
| B23 | 0.46 |

Biological target: T2, recombinant human IL-17A (SEQ ID NO: 76)
Test: cell-based or functional assay
Remark: another data set of the same source

| Binder | IC50, huIL-6 secretion by BJ cells; stimulus rhuIL-17A (0.5 nM) [nM] |
| --- | --- |
| B23 | 0.54 |

The binders below were run against T1, human IL-17A (construct not stated) (assay: ELISA on coated huIL-17A, crude Fab extract, wash of at least 3 h).

| Binder | Off-rate ELISA (normalized to XAB1 Fab) |
| --- | --- |
| B1 | 34.2 ratio to XAB1 Fab |
| B2 | 44.4 ratio to XAB1 Fab |
| B3 | 40.4 ratio to XAB1 Fab |
| B4 | 49.8 ratio to XAB1 Fab |
| B5 | 45.5 ratio to XAB1 Fab |
| B6 | 33 ratio to XAB1 Fab |
| B7 | 48.9 ratio to XAB1 Fab |
| B8 | 44.2 ratio to XAB1 Fab |
| B9 | 34.9 ratio to XAB1 Fab |
| B10 | 43.9 ratio to XAB1 Fab |
| B11 | 39.7 ratio to XAB1 Fab |
| B12 | 47.1 ratio to XAB1 Fab |
| B13 | 52.5 ratio to XAB1 Fab |
| B14 | 34.7 ratio to XAB1 Fab |
| B15 | 43.3 ratio to XAB1 Fab |
| B16 | 44.7 ratio to XAB1 Fab |
| B17 | 45.1 ratio to XAB1 Fab |
| B18 | 41.5 ratio to XAB1 Fab |
| B19 | 58.5 ratio to XAB1 Fab |
| B20 | 34.2 ratio to XAB1 Fab |
| B21 | 43 ratio to XAB1 Fab |
| B22 | 41.5 ratio to XAB1 Fab |

The binders below were run against T1, human IL-17A (construct not stated) (assay: cell-based or functional assay).

| Binder | EC50, in vitro neutralization activity, T = 0 weeks [µg/mL] | EC50, in vitro neutralization activity, T = 4 weeks at pH 8, 40°C (forced deamidation) [ng/ml] |
| --- | --- | --- |
| B23 | 0.045 | 61 |

These binders were tested against T1, human IL-17A (construct not stated) (assay: ELISA on coated huIL-17A, crude Fab extract, overnight with 200 nM XAB1 Fab as competitor).

| Binder | Competition ELISA (normalized to XAB1 Fab) |
| --- | --- |
| B1 | 36.6 ratio to XAB1 Fab |
| B2 | 39.5 ratio to XAB1 Fab |
| B3 | 51.5 ratio to XAB1 Fab |
| B4 | 62.8 ratio to XAB1 Fab |
| B5 | 57 ratio to XAB1 Fab |
| B6 | 42.1 ratio to XAB1 Fab |
| B7 | 52.4 ratio to XAB1 Fab |
| B8 | 37.3 ratio to XAB1 Fab |
| B9 | 36.9 ratio to XAB1 Fab |
| B10 | 60 ratio to XAB1 Fab |
| B11 | 29.3 ratio to XAB1 Fab |
| B12 | 45.2 ratio to XAB1 Fab |
| B13 | 54 ratio to XAB1 Fab |
| B14 | 41 ratio to XAB1 Fab |
| B15 | 46.4 ratio to XAB1 Fab |
| B16 | 44.6 ratio to XAB1 Fab |
| B17 | 46.7 ratio to XAB1 Fab |
| B18 | 53.3 ratio to XAB1 Fab |
| B19 | 64.9 ratio to XAB1 Fab |
| B20 | 31.6 ratio to XAB1 Fab |
| B21 | 44.2 ratio to XAB1 Fab |
| B22 | 41.1 ratio to XAB1 Fab |

The binders below were run against T1, human IL-17A (construct not stated) (assay: ELISA titration of purified Fab on plate-coated huIL-17A, normalized signal; x axis printed as log10 of Fab concentration (M)).

| Binder | EC50 (read off the curve) [nM] |
| --- | --- |
| B7 | ~2 |
| B9 | ~2 |
| B10 | ~2 |
| B13 | ~0.6 |
| B16 | ~2 |
| B20 | ~3 |

These binders were tested against T3, recombinant mouse IL-17A (SEQ ID NO: 83) (assay: cell-based or functional assay).

| Binder | IC50, KC secretion by CMT-93 cells; stimulus mIL-17A (0.15 nM) [nM] |
| --- | --- |
| B23 | 7.8 |
